Tested on: GAA KO mice
Assay: Tissue GAA activity after repeat SQ with varying 1-DNJ (Example 16)
Type: in vivo, mouse
Details: Lumizyme 20 mg/kg SQ alone, 4 doses, 3 days after last dose
Method: 14-week old male GAA KO mice in groups of 7 were used in the present study. Each group of mice was administered one of the following treatments:
(2) Lumizyme® alone (20 mg/kg) delivered subcutaneously (SQ);
(3) Co-formulated Lumizyme® (20 mg/kg) and 1-DNJ (3 mg/kg) SQ.
(4) Co-formulated Lumizyme® (20 mg/kg) and 1-DNJ (10 mg/kg) SQ.
(5) Co-formulated Lumizyme® (20 mg/kg) and 1-DNJ (30 mg/kg) SQ.
Each of the treatments was administered to their respective treatment group for a period of 2 weeks. The treatments were administered on Monday and Thursday of each week. SQ injections were administered between the shoulder blades of each mouse receiving treatment. A total of 4 doses were administered to each study animal.
Tissue samples were collected to determine rhGAA uptake 3 days following the last dose of the study (i.e., 3 days post dose 4). Tissue samples included heart, tongue, diaphragm, triceps, quads, gastrocnemius, ventral skin and dorsal skin from the SQ injection site. Tissue samples were also collected to determine glycogen concentration 14 days following the last dose of the study (i.e., 14 days post dose 4).
FIGS. 47-54 show tissue GAA activity 3 days following the final administration, and glycogen levels 14 days following the final administration. GAA activities in tissues were determined using a 4-MUG fluorogenic substrate assay. Glycogen levels were determined using a glycogen assay (see Example 9 for method). Lumizyme® alone administered subcutaneously led to uptake of enzyme in all investigated tissues following repeat administrations.

Substance: Lumizyme®: alglucosidase alfa, recombinant human acid α-glucosidase from Genzyme Corporation
- GAA Activity (Biceps): 45.9 nmol/mg/h
- GAA Activity (Diaphragm): 10.6 nmol/mg/h
- GAA Activity (Gastrocnemius): 1 nmol/mg/h
- GAA Activity (Heart): 1.9 nmol/mg/h
- GAA Activity (Quadriceps): 1.3 nmol/mg/h
- GAA Activity (Skin): 43.9 nmol/mg/h
- GAA Activity (Soleus): 0.9 nmol/mg/h
- GAA Activity (Tongue): 2.3 nmol/mg/h
- GAA Activity (Triceps): 151.3 nmol/mg/h
